The values that follow come from patent publication US20240026407A1, “MODIFICATION OF SAPONINS” (GLAXOSMITHKLINE BIOLOGICALS SA, priority 2020, published 2024).

What all share (type): biochemical, Quillaja saponaria
Assay [1] in a line: Experiment 6-1: screening of rhamnosidases for derhamnosylation of saponins in treated bark extract (2%), desglucosyl-QS-17 2134 to QS-21 1988 (PAR %). The note with it: TBE 2%, pH 7.5, 30 degC, 18 h; TIC peak area ratio percent, LCMS/MS; negative controls 2.719, 2.158.
Assay [2] is described as follows: Experiment 6-1: screening of rhamnosidases for derhamnosylation of saponins in treated bark extract (2%), QS-17 2296 to QS-18 2150 (PAR %). The note with it: TBE 2%, pH 7.5, 30 degC, 18 h; TIC peak area ratio percent of rhamnosylated starting saponin to derhamnosylated product, LCMS/MS; negative controls 4.876, 5.225.
The nature of assay [3]: Experiment 6-1: specificity of rhamnosidases towards other rhamnose residues (C3 saccharide rhamnose, C28 saccharide rhamnose). The note with it: TBE 2%, pH 7.5, 30 degC, 18 h; LCMS/MS; negative controls 0.18, 0.17.
Assay [4] is described as follows: Experiment 6-2: screening of rhamnosidases for derhamnosylation of saponins in treated bark extract (25%), relative % of Left, Middle and Right Peak by UV HPLC. The note with it: TBE 25%, pH 7.4, 19.5 h.
The nature of assay [5]: Experiment 6-3: screening of rhamnosidases for derhamnosylation of saponins in crude bark extract (80%), relative % of Left, Middle and Right Peak by UV HPLC. The note with it: CBE 80%, pH 7.4, 30 degC, 19.5 h. The method, boiled down: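 Clarified lysates of expressed rhamnosidase variants were incubated with crude bark extract (pH 7.4, final 80%) at 30 degC with shaking for 19.5 h, then quenched with MeCN+2% AcOH. UV HPLC gave relative % of Left (QS-17), Middle (QS-18/desglucosyl-QS-17) and Right (QS-21) peaks.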

Assay [6] is described as follows: Experiment 6-1: screening of rhamnosidases for derhamnosylation of saponins in treated bark extract (2%), QS-17 2310 to QS-18 2164 (PAR %). The note with it: TBE 2%, pH 7.5, 30 degC, 18 h; TIC peak area ratio percent, LCMS/MS; negative controls 3.061, 2.429.
[7] abbreviates: mainly QS-21 family, negative control 26%.

B1: 1053 (protein, listed as Solibacter usitatus)
chain: MKRAALLILLAGTLFGAASVRPQQLRCEYRVNPQGIDVKDPRLSWILAPVNPKGRGLTQSAYRILVSSSEAALRGNSGDLWDSGKIVSAESTQVAYQGKPLNSGTAAFWKVQVWDQDGQPSDWSAPAQWSMGLLRAEDWKGRWIGRDEAGVYKDSASDYQLLERARWIWDAGNAQAGAPVGNRFFRAAFTVPAGRKVTRALSVIGADNTADVYLNGEPIAVESKLPLPHAVDITHLVRPGENVIAVRATHSRADRPAGLIGGVRVEFASGDPVLLQTSNQWRTVAKPDPGWENPGFLDAAWQASKDLGAFGMAPWEGVGFLAQHRLPGRLLRKEFALEKKLRRATVYYSGLGLSELYLNGAKVGDHVLSPGLTDYDKHVLYVTFDVTRQLVQGKNAIGLMLGNGRYYAPRNDVPIKTRDFGYPKALVQLDLEFEDGSRANVVSDETWKYSADGPIRANNEYDGEEYDARREIAGWNKAGFDDAGWEAAKIVGASSGAVVAQMAEPLRVTETVKPLGVKKLRPGVFVFDMGQNLVGWCRLRVTGPKGTQVKLRHSETLKDDGSLYVDNLRSAKAEDIYTLKGVGAEVYEPRFTYHGFRYVEVTGFPGEPSASALDARVVHDDMERAGEFTSSSGLLNKIHHNMFWGIRGNYRSIPTDCPQRDERQGWLGDRGQVSRSESYMFDVAGFYSKWMTDLEDSQRPSGSIPDVSPNYWPLYNDDLTWPGTIIFIHGMLYDQYGDKRVLARGYPAMKKWMDYEKTFVKDGLISKDQYADWCVPPEDPKLIHSQDPRRVTDKTLIATSYYYQFLRTMSRYARILDRPTDAADFDKQADQVQDTFQRRFFKLESGMYDNGTQTSSILPLYFGMIPADFRPAVVQTLVRNIELQSNGHVGTGLVGAQWLMRTLSDAGYADLAYKIATQKTYPGWGYMVEQGATTIWELWNGNTADPAMNSGNHVMQIGDLAVWMYEYLAGIRTDPEKPGFRHAVIRPYPAGDLSFVKATHKTMYGPLASSWKREKGEFMLDVTVPANTTATVWVPAKDAASVTESGKKATDVKGVKFVRSENGSAIFEVSSGAYSFKSGI
In the case of B1, the “Peak75 (PAR %)” value in assay [1] is recorded as 0.944%. Further, the “QS-17 (PAR %)” value in assay [2] is listed as 1.127%. Besides, the “ratio PP/QS-21” value in assay [3] is given as 0.18. The “Left Peak” value in assay [4] (mainly QS-17 family, negative control 24%) is 20%; in assay [5] (mainly QS-17 family, negative control 27%), 26%. The “Middle Peak” value in assay [4] (mainly QS-18 and desglucosyl-QS-17 family, negative control 50%) is 54%; in assay [5] (mainly QS-18 and desglucosyl-QS-17 family, negative control 48%), 48%. The “Right Peak” value in assay [4] (setting [7]) and in assay [5] (setting [7]) was 26% throughout. Further, the “Peak57 (PAR %)” value in assay [6] amounted to 0.550%.
